Laboratory results: article PMC5427921 (2017)

What was measured:
Test in all cases: ITC
PRL3 R138E = PRL3 R138E (human, UniProt O75365 1-169, R138E)
PRL3 C49A = PRL3 C49A (human, UniProt O75365 1-169, C49A)
[1] = target: PRL3 with Arg138 mutated to alanine (human, UniProt O75365 1-169, Arg138 to alanine)
PRL3 C49S = PRL3 C49S (human, UniProt O75365 1-169, C49S)
PRL3 C104S = PRL3 C104S (human, UniProt O75365 1-169, C104S)
PRL3 L108A = PRL3 L108A (human, UniProt O75365 1-169, L108A)
PRL3 C104A = PRL3 C104A (human, UniProt O75365 1-169, C104A)
[2] = target: PRL3 with the catalytic cysteine (Cys104) mutated to glutamic acid (human, UniProt O75365 1-169, Cys104 to glutamic acid)
PRL3 D72A = PRL3 D72A (human, UniProt O75365 1-169, D72A)
[3] = target: CBS-pair domain of human CNNM3 (GST tag removed) (human, UniProt Q8NE01 309-452)

B1: CNNM3 CBS-pair domain as a GST fusion (domain or fragment)
chain: LRCRTVEDVLTPLEDCFMLDASTVLDFGVLASIMQSGHTRIPVYEEERSNIVDMLYLKDLAFVDPEDCTPLSTITRFYNHPLHFVFNDTKLDAVLEEFKRGKSHLAIVQKVNNEGEGDPFYEVLGLVTLEDVIEEIIRSEILDE
- Kd (PRL3 R138E): 530 nM
- Kd (PRL3 C49A): 72 nM
- Kd [1]: 320 nM
- Kd (PRL3 C49S): 105 nM
- Kd (PRL3 C104S): 1400 nM
- Kd (PRL3 L108A): 1700 nM
- Kd (PRL3 C104A): 180 nM
- Kd [2]: 2800 nM
- Kd (PRL3 D72A): 215 nM

B2: PRL2 phosphatase (as used in ITC) (enzyme)
chain: MNRPAPVEISYENMRFLITHNPTNATLNKFTEELKKYGVTTLVRVCDATYDKAPVEKEGIHVLDWPFDDGAPPPNQIVDDWLNLLKTKFREEPGCCVAVHCVAGLGRAPVLVALALIECGMKYEDAVQFIRQKRRGAFNSKQLLYLEKYRPKMRLRFRDTNGHCCVQ
- Kd [3]: 11 nM
